Measurements published in the supplement of paper PMC9112550, “Optimization of the antimicrobial peptide Bac7 by deep mutational scanning” (BMC Biology, 2022).

test system: Escherichia coli TOP10; assay: shrunken log2 fold change of peptide-encoding DNA abundance (4.5 h post-induction vs induction); higher = less antimicrobial activity (less host growth inhibition); conditions: time post-induction: 4.5 h; library: site-saturation at positions 5, 18, 19, 20
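Further: peptides expressed intracellularly from a pBAD plasmid library in pooled LB shake-flask culture, induced with 0.3% L-arabinose, DNA abundance read by NGS, three biological replicates, DESeq2 with apeglm shrinkage.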

Sequence | shrunken log2 fold change
RRIRSRPPRLPRPRPRPTPIPRP | 0.0944
RRIRSRPPRLPRPRPRPTPPPRP | 0.43
RRIRSRPPRLPRPRPRPTVHPRP | -0.0989
RRIRSRPPRLPRPRPRPTWWPRP | 0.422
RRIRSRPPRLPRPRPRPVARPRP | 0.148
RRIRSRPPRLPRPRPRPVCKPRP | -0.0891
RRIRSRPPRLPRPRPRPVCNPRP | 0.413
RRIRSRPPRLPRPRPRPVEEPRP | 0.0884
RRIRSRPPRLPRPRPRPVGFPRP | 0.334
RRIRSRPPRLPRPRPRPVGLPRP | 0.107
RRIRSRPPRLPRPRPRPVHCPRP | -0.258
RRIRSRPPRLPRPRPRPVHEPRP | -0.185
RRIRSRPPRLPRPRPRPVHTPRP | 0.0158
RRIRSRPPRLPRPRPRPVHVPRP | -0.0394
RRIRSRPPRLPRPRPRPVMGPRP | -0.0522
RRIRSRPPRLPRPRPRPVNMPRP | -0.103
RRIRSRPPRLPRPRPRPVPMPRP | 1.32
RRIRSRPPRLPRPRPRPVQGPRP | 0.108
RRIRSRPPRLPRPRPRPVRHPRP | -0.0103
RRIRSRPPRLPRPRPRPVRTPRP | -0.0647
RRIRSRPPRLPRPRPRPVSVPRP | 0.0162
RRIRSRPPRLPRPRPRPVSWPRP | 0.437
RRIRSRPPRLPRPRPRPVTEPRP | -0.0851
RRIRSRPPRLPRPRPRPVTMPRP | -0.312
RRIRSRPPRLPRPRPRPVTRPRP | -0.538

Sequence | shrunken log2 fold change
RRIRSRPPRLPRPRPRPVVLPRP | 0.124
RRIRSRPPRLPRPRPRPVYRPRP | -0.398
RRIRSRPPRLPRPRPRPWAVPRP | -0.0517
RRIRSRPPRLPRPRPRPWCEPRP | -0.291
RRIRSRPPRLPRPRPRPWDCPRP | -0.00801
RRIRSRPPRLPRPRPRPWEQPRP | -0.208
RRIRSRPPRLPRPRPRPWFAPRP | -0.00302
RRIRSRPPRLPRPRPRPWFTPRP | -0.253
RRIRSRPPRLPRPRPRPWFVPRP | -0.36
RRIRSRPPRLPRPRPRPWGPPRP | 0.101
RRIRSRPPRLPRPRPRPWICPRP | -0.15
RRIRSRPPRLPRPRPRPWIHPRP | -0.338
RRIRSRPPRLPRPRPRPWISPRP | 0.181
RRIRSRPPRLPRPRPRPWIWPRP | 0.341
RRIRSRPPRLPRPRPRPWKIPRP | -0.0842
RRIRSRPPRLPRPRPRPWLFPRP | -0.183
RRIRSRPPRLPRPRPRPWLNPRP | -0.119
RRIRSRPPRLPRPRPRPWMTPRP | -0.000334
RRIRSRPPRLPRPRPRPWQMPRP | 0.0651
RRIRSRPPRLPRPRPRPWRVPRP | 0.108
RRIRSRPPRLPRPRPRPWSNPRP | -0.0394
RRIRSRPPRLPRPRPRPWSTPRP | -0.696
RRIRSRPPRLPRPRPRPWTGPRP | -0.105
RRIRSRPPRLPRPRPRPWTHPRP | -0.373
RRIRSRPPRLPRPRPRPWTPPRP | -0.154

Sequence | shrunken log2 fold change
RRIRSRPPRLPRPRPRPWYFPRP | -0.85
RRIRSRPPRLPRPRPRPWYVPRP | -0.36
RRIRSRPPRLPRPRPRPYAIPRP | -0.228
RRIRSRPPRLPRPRPRPYESPRP | -0.26
RRIRSRPPRLPRPRPRPYGIPRP | 0.104
RRIRSRPPRLPRPRPRPYGMPRP | -0.0661
RRIRSRPPRLPRPRPRPYGNPRP | -0.621
RRIRSRPPRLPRPRPRPYGWPRP | 0.328
RRIRSRPPRLPRPRPRPYLFPRP | -0.676
RRIRSRPPRLPRPRPRPYMHPRP | -0.395
RRIRSRPPRLPRPRPRPYQYPRP | -1.11
RRIRSRPPRLPRPRPRPYRQPRP | -0.402
RRIRSRPPRLPRPRPRPYTDPRP | -1.11
RRIRSRPPRLPRPRPRPYTGPRP | -0.125
RRIRSRPPRLPRPRPRPYWQPRP | -0.551
RRIRSRPPRLPRPRPRPYWRPRP | -0.21
RRIRTRPPRLPRPRPRPACAPRP | 0.441
RRIRTRPPRLPRPRPRPACPPRP | 0.178
RRIRTRPPRLPRPRPRPADYPRP | -0.226
RRIRTRPPRLPRPRPRPAEVPRP | -0.108
RRIRTRPPRLPRPRPRPAGAPRP | 0.164
RRIRTRPPRLPRPRPRPAHKPRP | 0.0105
RRIRTRPPRLPRPRPRPAHVPRP | 0.0505
RRIRTRPPRLPRPRPRPAIFPRP | -0.0366
RRIRTRPPRLPRPRPRPAIVPRP | 0.00191

Sequence | shrunken log2 fold change
RRIRTRPPRLPRPRPRPAKCPRP | 0.0582
RRIRTRPPRLPRPRPRPALDPRP | 0.196
RRIRTRPPRLPRPRPRPANIPRP | -0.439
RRIRTRPPRLPRPRPRPANRPRP | -0.0396
RRIRTRPPRLPRPRPRPAQNPRP | 0.323
RRIRTRPPRLPRPRPRPAVSPRP | 0.00645
RRIRTRPPRLPRPRPRPAWGPRP | 0.142
RRIRTRPPRLPRPRPRPAYGPRP | -0.285
RRIRTRPPRLPRPRPRPCAFPRP | -0.0344
RRIRTRPPRLPRPRPRPCDAPRP | 0.0216
RRIRTRPPRLPRPRPRPCDSPRP | -0.0585
RRIRTRPPRLPRPRPRPCDTPRP | -0.116
RRIRTRPPRLPRPRPRPCFKPRP | -0.362
RRIRTRPPRLPRPRPRPCGCPRP | 0.0633
RRIRTRPPRLPRPRPRPCGVPRP | -0.175
RRIRTRPPRLPRPRPRPCKIPRP | -0.03
RRIRTRPPRLPRPRPRPCKYPRP | -0.41
RRIRTRPPRLPRPRPRPCLEPRP | -0.279
RRIRTRPPRLPRPRPRPCMHPRP | -0.0639
RRIRTRPPRLPRPRPRPCMPPRP | -0.143
RRIRTRPPRLPRPRPRPCPDPRP | -0.283
RRIRTRPPRLPRPRPRPCQFPRP | -0.0244
RRIRTRPPRLPRPRPRPCQNPRP | 0.031
RRIRTRPPRLPRPRPRPCREPRP | 0.0664
RRIRTRPPRLPRPRPRPCRPPRP | -0.415

Sequence | shrunken log2 fold change
RRIRTRPPRLPRPRPRPCSGPRP | -0.307
RRIRTRPPRLPRPRPRPCYIPRP | -0.226
RRIRTRPPRLPRPRPRPDALPRP | 0.162
RRIRTRPPRLPRPRPRPDCHPRP | -0.0374
RRIRTRPPRLPRPRPRPDCLPRP | -0.0333
RRIRTRPPRLPRPRPRPDDQPRP | -0.052
RRIRTRPPRLPRPRPRPDEEPRP | 0.0173
RRIRTRPPRLPRPRPRPDEVPRP | -0.0587
RRIRTRPPRLPRPRPRPDHMPRP | -0.109
RRIRTRPPRLPRPRPRPDIVPRP | -0.0539
RRIRTRPPRLPRPRPRPDLLPRP | -0.263
RRIRTRPPRLPRPRPRPDLMPRP | -0.121
RRIRTRPPRLPRPRPRPDLQPRP | -0.0382
RRIRTRPPRLPRPRPRPDMFPRP | -0.0274
RRIRTRPPRLPRPRPRPDMMPRP | -0.182
RRIRTRPPRLPRPRPRPDPKPRP | 0.113
RRIRTRPPRLPRPRPRPDQIPRP | -0.0138
RRIRTRPPRLPRPRPRPDSTPRP | -0.232
RRIRTRPPRLPRPRPRPDYEPRP | -0.023
RRIRTRPPRLPRPRPRPDYPPRP | 0.0242
RRIRTRPPRLPRPRPRPECLPRP | 0.105
RRIRTRPPRLPRPRPRPEDRPRP | 0.0062
RRIRTRPPRLPRPRPRPEDSPRP | -0.0215
RRIRTRPPRLPRPRPRPEFDPRP | 0.214
RRIRTRPPRLPRPRPRPEGEPRP | -0.0398

Sequence | shrunken log2 fold change
RRIRTRPPRLPRPRPRPEHDPRP | -0.0214
RRIRTRPPRLPRPRPRPEHLPRP | -0.00973
RRIRTRPPRLPRPRPRPEHRPRP | -0.0227
RRIRTRPPRLPRPRPRPEIEPRP | -0.299
RRIRTRPPRLPRPRPRPEIHPRP | -0.0341
RRIRTRPPRLPRPRPRPELAPRP | 0.188
RRIRTRPPRLPRPRPRPELKPRP | 0.432
RRIRTRPPRLPRPRPRPELYPRP | -0.258
RRIRTRPPRLPRPRPRPEMFPRP | -0.0156
RRIRTRPPRLPRPRPRPEMNPRP | 0.00876
RRIRTRPPRLPRPRPRPENIPRP | -0.0809
RRIRTRPPRLPRPRPRPENPPRP | 0.261
RRIRTRPPRLPRPRPRPEPHPRP | 0.0668
RRIRTRPPRLPRPRPRPEPLPRP | 0.0272
RRIRTRPPRLPRPRPRPEPNPRP | -0.0182
RRIRTRPPRLPRPRPRPEQPPRP | 0.309
RRIRTRPPRLPRPRPRPEQWPRP | -0.0581
RRIRTRPPRLPRPRPRPERGPRP | 0.715
RRIRTRPPRLPRPRPRPEYRPRP | 0.0555
RRIRTRPPRLPRPRPRPFDTPRP | -0.346
RRIRTRPPRLPRPRPRPFESPRP | 0.0313
RRIRTRPPRLPRPRPRPFFVPRP | -0.142
RRIRTRPPRLPRPRPRPFGFPRP | -0.473
RRIRTRPPRLPRPRPRPFGTPRP | -0.107
RRIRTRPPRLPRPRPRPFIAPRP | -0.589
